Assay results reported in US20240182530A1.

Key:
sfGFP-SpyTag003 Loop A [1] = test: isopeptide bond formation, SDS-PAGE densitometry; reference SpyTag003 as a terminal fusion with SpyCatcher003
sfGFP-SpyTag003 Loop A [2] = test: isopeptide bond formation, 5 µM each, PBS pH 7.5, 25 °C, SDS-PAGE densitometry
[3] = molecular target: Gre2p-SpyTag003 Loop B (Saccharomyces cerevisiae) (UniProt Q12068); test: as above
Sequence of UniProt Q12068 (Q12068 other isoform, or with tags, fused parts or gaps): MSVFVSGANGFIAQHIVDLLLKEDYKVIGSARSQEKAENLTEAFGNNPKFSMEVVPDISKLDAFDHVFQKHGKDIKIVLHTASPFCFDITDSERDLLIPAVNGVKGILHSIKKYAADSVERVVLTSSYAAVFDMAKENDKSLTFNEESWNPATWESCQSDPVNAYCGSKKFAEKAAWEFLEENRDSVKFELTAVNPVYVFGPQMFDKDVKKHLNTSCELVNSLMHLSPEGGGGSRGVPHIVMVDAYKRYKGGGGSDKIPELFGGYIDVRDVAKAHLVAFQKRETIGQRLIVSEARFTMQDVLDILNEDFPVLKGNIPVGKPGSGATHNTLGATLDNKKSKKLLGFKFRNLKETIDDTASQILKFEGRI

For SpyCatcher003 (designed binder), the fold slower than SpyTag003 as a terminal fusion (sfGFP-SpyTag003 Loop A [1]) was 6000 fold, the second-order rate constant (sfGFP-SpyTag003 Loop A [2]) was 87 M⁻¹ s⁻¹ and the second-order rate constant [3] was 93 M⁻¹ s⁻¹.
